Biological target: T1, NKG2C (transgenic, expressed on the surface of iPSC-derived NK cells) (Homo sapiens (Human), UniProt P26717 1-231)
T1 construct: After 2A cleavage a C-terminal 2A remnant may stay on the chain; also called transgenic NKG2C
Assay: FACS of surface NKG2C on iNK cells from the NKG2C only iPSC line; pairing inferred from surface expression
Description: After the engineering step, iPSCs were sorted for the desired phenotype. […] Engineered iPSCs were differentiated into CD34+ hematopoietic progenitor cells and subsequently differentiated into CD56+ NK cells (iNK cells) using a stepwise differentiation and expansion strategy. Surface NKG2C expression was low on unmodified iNK cells (about 5-10%) as determined by FACS.

T1 sequence (P26717 whole entry): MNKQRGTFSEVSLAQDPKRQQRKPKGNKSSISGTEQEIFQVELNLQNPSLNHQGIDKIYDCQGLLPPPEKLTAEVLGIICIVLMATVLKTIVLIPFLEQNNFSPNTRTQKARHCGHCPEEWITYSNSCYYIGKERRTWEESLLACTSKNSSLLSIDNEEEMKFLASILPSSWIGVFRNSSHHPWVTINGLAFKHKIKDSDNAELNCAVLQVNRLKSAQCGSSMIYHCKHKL

| binding result | Binder |
| --- | --- |
| binds | endogenous DAP12 (other, human, UniProt O43914 22-113, looked up, whole, on cells) LRPVQAQAQSDCSCSTVSPGVLAGIVMGDLVLTVLIALAVYFLGRLVPRGRGAAEAATRKQRITETESPYQELQGQRSDVYSDLNTQRPYYK |
| binds | endogenous CD94 (receptor, human, UniProt Q13241 1-179, looked up, whole, on cells) MAVFKTTLWRLISGTLGIICLSLMSTLGILLKNSFTKLSIEPAFTPGPNIELQKDSDCCSCQEKWVGYRCNCYFISSEQKTWNESRHLCASQKSSLLQLQNTDELDFMSSSQQFYWIGLSYSEEHTAWLWENGSALSQYLFPSFETFNTKNCIAYNPNGNALDESCEDKNRYICKQQLI |

Reference: US20220127328A1 (FATE THERAPEUTICS, published 2022)
